# According to patent US20200079850A1 (SUTRO BIOPHARMA, published 2020):
# B1: PD-1/LAG3 Bi-specific Construct B: aPD1 1353-G10 scFvFc zwB R28T/P30D/H31S V262E; aLAG3 1449-G09.2 Fab zwA V262E (bispecific antibody, human IgG1, kappa)
# scFv: EVQLVQSGAEVKKPGASVKVSCKASGYTFDSYGISWVRQAPGQGLEWMGWISAYNGNTNYAQKLQGRVTMTTDTSTNTAYMELRSLRSDDTAVYYCARDVDYGTGSGYWGQGTLVTVSSGGGGSGGGGSGGGGSSYELTQPPSVSVSPGQTARITCSGDALPKQYAYWYQQKPGQAPVMVIYKDTERPSGIPERFSGSSSGTKVTLTISGVQAEDEADYYCQSADNSITYRVFGGGTKVTVLAAGSDQEPKSSDKTHTCPPCPAPELLGGPSVFLFPPKPKDTLMISRTPEVTCEVVDVSHEDPEVKFNWYVDGVEVHNAKTKPREEQYNSTYRVVSVLTVLHQDWLNGKEYKCKVSNKALPAPIEKTISKAKGQPREPQVYVLPPSREEMTKNQVSLLCLVKGFYPSDIAVEWESNGQPENNYLTWPPVLDSDGSFFLYSKLTVDKSRWQQGNVFSCSVMHEALHNHYTQKSLSLSPGK
# heavy: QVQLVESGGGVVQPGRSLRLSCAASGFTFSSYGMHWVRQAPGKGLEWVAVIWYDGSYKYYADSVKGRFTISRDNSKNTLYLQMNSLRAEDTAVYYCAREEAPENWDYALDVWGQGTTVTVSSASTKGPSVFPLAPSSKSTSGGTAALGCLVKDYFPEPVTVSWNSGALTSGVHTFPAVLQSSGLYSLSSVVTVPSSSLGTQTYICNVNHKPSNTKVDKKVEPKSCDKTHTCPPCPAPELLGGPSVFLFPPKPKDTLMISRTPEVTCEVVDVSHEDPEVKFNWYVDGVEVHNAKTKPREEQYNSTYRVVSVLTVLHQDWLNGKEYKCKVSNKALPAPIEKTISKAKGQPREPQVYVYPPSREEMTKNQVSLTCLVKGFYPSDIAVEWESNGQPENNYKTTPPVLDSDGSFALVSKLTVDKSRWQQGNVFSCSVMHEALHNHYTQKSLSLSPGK
# light: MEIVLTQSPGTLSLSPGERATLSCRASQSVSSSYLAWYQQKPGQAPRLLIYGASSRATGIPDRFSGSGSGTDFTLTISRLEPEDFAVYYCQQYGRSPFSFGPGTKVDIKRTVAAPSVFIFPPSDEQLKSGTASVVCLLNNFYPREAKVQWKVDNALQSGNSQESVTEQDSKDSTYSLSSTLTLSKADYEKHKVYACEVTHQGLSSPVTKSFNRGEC
# notes: The N-terminal Met is not included
# B2: PD-1/LAG3 Bi-specific Construct C: aPD1 1353-G10 Vk1-39LC scFvFc zwB V262E; aLAG3 1449-G09.2 Fab zwA V262E (bispecific antibody, human IgG1, kappa)
# scFv: EVQLVQSGAEVKKPGASVKVSCKASGYRFPHYGISWVRQAPGQGLEWMGWISAYNGNTNYAQKLQGRVTMTTDTSTNTAYMELRSLRSDDTAVYYCARDVDYGTGSGYWGQGTLVTVSSGGGGSGGGGSGGGGSDIQLTQSPSSLSASVGDRVTITCSGDALPKQYAYWYQQKPGKAPKLLIYKDTERPSGVPSRFSGSSSGTKVTLTISSLQPEDFATYYCQSADNSITYRVFGGGTKVEIKAAGSDQEPKSSDKTHTCPPCPAPELLGGPSVFLFPPKPKDTLMISRTPEVTCEVVDVSHEDPEVKFNWYVDGVEVHNAKTKPREEQYNSTYRVVSVLTVLHQDWLNGKEYKCKVSNKALPAPIEKTISKAKGQPREPQVYVLPPSREEMTKNQVSLLCLVKGFYPSDIAVEWESNGQPENNYLTWPPVLDSDGSFFLYSKLTVDKSRWQQGNVFSCSVMHEALHNHYTQKSLSLSPGK
# heavy: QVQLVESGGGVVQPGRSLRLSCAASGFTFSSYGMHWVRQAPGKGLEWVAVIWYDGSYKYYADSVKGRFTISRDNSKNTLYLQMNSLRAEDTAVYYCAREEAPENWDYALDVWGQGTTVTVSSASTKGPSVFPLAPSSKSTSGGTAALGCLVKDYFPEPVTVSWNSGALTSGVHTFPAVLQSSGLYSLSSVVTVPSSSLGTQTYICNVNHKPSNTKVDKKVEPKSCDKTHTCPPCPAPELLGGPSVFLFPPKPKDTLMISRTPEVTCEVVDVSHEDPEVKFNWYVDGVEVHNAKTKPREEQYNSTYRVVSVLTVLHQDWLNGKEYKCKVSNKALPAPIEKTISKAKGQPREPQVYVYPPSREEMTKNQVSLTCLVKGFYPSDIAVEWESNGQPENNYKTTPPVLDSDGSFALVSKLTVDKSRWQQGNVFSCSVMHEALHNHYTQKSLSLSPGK
# light: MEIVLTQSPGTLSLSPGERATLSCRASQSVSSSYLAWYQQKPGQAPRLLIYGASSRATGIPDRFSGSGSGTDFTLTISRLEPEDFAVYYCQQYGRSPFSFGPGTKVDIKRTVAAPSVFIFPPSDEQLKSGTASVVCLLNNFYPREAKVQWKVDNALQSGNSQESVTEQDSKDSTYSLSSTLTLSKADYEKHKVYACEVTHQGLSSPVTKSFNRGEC
# notes: as for B1
# Tests used:
# [1] = target: T1, hPD1 (Acro Biosystems), SPR analyte (human, UniProt Q15116 25-167); assay: SPR (Biacore), antibody captured by anti-Fc, hPD1 as analyte, 25 C
# T1 construct: also called human PD1 kinetics
# Description: Anti-Fc polyclonal antibodies were immobilized onto a CMS chip (GE Life Sciences) using amine coupling chemistry (from Amine Coupling Kit, GE Life Sciences). The immobilization steps were carried out at a flow rate of 25 μl/min in 1×HBS-EP+buffer (GE Life Sciences; 10× Stock diluted before use). The sensor surfaces were activated for 7 min with a mixture of NHS (0.05 M) and EDC (0.2 M). The Anti-Fc antibodies were injected over all 4 flow cells at a concentration of 25 ug/ml in 10 mM sodium acetate, pH 4.5, for 7 min. Ethanolamine (1 M, pH 8.5) was injected for 7 min to block any remaining activated groups. An average of 12,000 response units (RU) of capture antibody was immobilized on each flow cell.
# Kinetic binding experiments were performed at 25° C. using 1×HBS-EP+buffer. Test and control antibodies were injected over the anti-Fc surface at concentrations of 5-10 μg/mL for 12 seconds at a flow rate of 10 μl/min on flow cells 2, 3 and 4, followed by a buffer wash for 30 seconds at the same flow rate. Kinetic characterization of antibody samples was carried out with a dilution series of antigen and 1 injection of 0 nM antigen. After capturing ligand (antibody) on the anti-Fc surface, the analyte (hPD1 or hLAG3, Acro Biosystems, Newark, Del.) was bound at 100, 25, 6.25 and 0 nM for 180 seconds, followed by a 450 second dissociation phase at a flow rate of 50 μl/min. Between each ligand capture and analyte binding cycle, regeneration was carried out using 2 injections of 10 mM Glycine pH 2.0 for 30 seconds at 30 μL/min, followed by a 30 second buffer wash step.
# The data was fit with the Biacore T200 Evaluation software, using a 1:1 Langmuir binding model. KD (affinity, nM) was determined as a ratio of the kinetic rate constants calculated from the fits of the association and dissociation phases.
# [2] = target: T2, rabbit Fc-tagged recombinant human PD1 (rhPD1-rabbit Fc) (human, UniProt Q15116 25-167, limits assumed); assay: flow cytometry competition: inhibition of rhPD1-rabbit Fc binding to human PD-L2 on CHO cells; PE anti-rabbit IgG detection
# T2 construct: also called recombinant human PD-1 protein
# Description: CHO-k cells stably expressing human PD-L1 or PD-L2 were used to measure the ability of anti-PD1/LAG3 bi-specific antibody constructs to block rabbit Fc-tagged recombinant human PD1 (rhPD1-rabbit Fc) protein binding. Cells were seeded at 100,000 cells/well in 100 μL of FACS buffer in 96-well polypropylene plates. The cells were centrifuged and resuspended with test antibodies (2× concentration) diluted in FACS buffer, immediately followed by equal volume of rhPD1-rabbit Fc (added at 2× concentration; 0.2 ng/mL and 0.1 ng/mL final for PD-L1 and PD-L2, respectively). Cells were incubated on ice for 1 hour and washed twice. rhPD1-rabbit Fc binding on CHO-human PD-L1 or PD-L2 cells was detected with R-Phycoerythrin AffiniPure F(ab′)₂ Fragment Goat Anti-Rabbit IgG (H+L) (1:200 dilution, Jackson ImmunoResearch) for 30 minutes. The cells were washed twice with FACS buffer, fixed in 4% paraformaldehyde in PBS for 20 mins on ice in the dark, washed twice with FACS buffer, and analyzed using the BD LSR II Flow Cytometer. Data were analyzed using FlowJo (FlowJo, LLC; Ashland, Oreg.) to determine mean fluorescence intensities. Prism 6 software was used to create one site, specific binding with Hill slope curves (Log transform) to determine IC₅₀ values.
# [3] = target: T3, human PD-1 expressed on the surface of CHO cells (human, UniProt Q15116 25-288); assay: flow cytometry cell binding on CHO cells expressing human PD-1; PE anti-human IgG detection; one site-specific binding with Hill slope fit
# T3 construct: I took it as human PD-1; also called CHO-PD1
# Description: (§1) CHO-k cells stably expressing PD-1 or LAG3 (human or cynomolgus) on the cell surface were used to assess binding affinity of anti-PD-1/LAG3 bispecific antibody constructs. Cells were seeded at 100,000 cells/well in 100 μL of FACS buffer (1×PBS, 0.5% BSA, 0.1% sodium azide) in 96-well polypropylene plates. The cells were centrifuged at 1.5K rpm and resuspended with test antibodies diluted in FACS buffer and incubated on ice for 1 hour. The cells were washed twice with FACS buffer and incubated on ice for 30 mins with R-Phycoerythrin-AffiniPure F(ab′)2 Fragment Goat Anti-Human IgG (H+L) secondary detection antibody (1:200 dilution, Jackson ImmunoResearch Laboratories, West Grove, Pa.). The cells were washed twice with FACS buffer, fixed in 4% paraformaldehyde in PBS (Santa Cruz Biotechnology; Dallas, Tex.) for 20 mins on ice in the dark, washed twice with FACS buffer, and analyzed using the BD LSR II Flow Cytometer (BD Biosciences; San Jose, Calif.). Data were analyzed using FlowJo (FlowJo, LLC; Ashland, Oreg.) to determine mean fluorescence intensities. Binding constants were calculated using the statistical software, GraphPad Prism (GraphPad Software; La Jolla, Calif.) using the nonlinear regression equation, one site—specific binding with Hill slope. The secondary antibody by itself was used as a control.
# [4] = target: T4, human LAG3 expressed on the cell surface (CHO-LAG3, 293T-LAG3 cells) (human, UniProt P18627 23-525); assay: flow cytometry cell binding on CHO cells expressing human LAG3; PE anti-human IgG detection; one site-specific binding with Hill slope fit
# T4 construct: Stably transfected CHO or HEK293T cells; also called Human LAG3 (CHO); Human LAG3 (293T)
# T4 sequence: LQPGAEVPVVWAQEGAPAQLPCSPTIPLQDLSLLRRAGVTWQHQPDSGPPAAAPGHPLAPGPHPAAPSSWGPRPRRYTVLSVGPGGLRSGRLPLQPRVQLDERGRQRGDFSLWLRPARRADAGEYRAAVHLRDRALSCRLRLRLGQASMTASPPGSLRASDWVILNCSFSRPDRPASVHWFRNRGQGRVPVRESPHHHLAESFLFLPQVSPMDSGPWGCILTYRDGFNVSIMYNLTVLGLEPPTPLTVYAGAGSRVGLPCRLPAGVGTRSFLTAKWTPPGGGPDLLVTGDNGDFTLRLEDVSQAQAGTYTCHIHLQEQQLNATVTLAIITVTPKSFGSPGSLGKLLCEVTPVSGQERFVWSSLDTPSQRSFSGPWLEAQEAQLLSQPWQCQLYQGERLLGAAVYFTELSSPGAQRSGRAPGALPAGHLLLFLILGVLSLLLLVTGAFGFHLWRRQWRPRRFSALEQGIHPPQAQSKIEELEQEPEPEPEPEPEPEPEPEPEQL
# Description: as §1
# T3 sequence (Q15116 25-288 limits assumed): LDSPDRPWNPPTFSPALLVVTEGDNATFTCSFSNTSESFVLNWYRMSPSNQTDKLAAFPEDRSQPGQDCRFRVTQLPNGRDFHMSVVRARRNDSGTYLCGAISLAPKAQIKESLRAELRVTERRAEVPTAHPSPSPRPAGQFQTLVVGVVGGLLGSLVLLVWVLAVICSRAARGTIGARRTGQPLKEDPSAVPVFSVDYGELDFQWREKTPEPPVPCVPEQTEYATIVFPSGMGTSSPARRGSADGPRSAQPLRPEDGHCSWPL
# T1 sequence (Q15116 25-167 limits assumed): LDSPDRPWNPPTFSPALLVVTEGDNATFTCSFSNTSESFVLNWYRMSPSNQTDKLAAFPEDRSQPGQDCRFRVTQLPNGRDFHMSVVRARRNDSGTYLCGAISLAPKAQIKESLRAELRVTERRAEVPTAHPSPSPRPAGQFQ
# T2 sequence (Q15116 25-167 limits assumed): as above
Binder,Kd [1] [nM],koff [1] [s⁻¹],kon [1] [M⁻¹ s⁻¹],IC50 [2] [nM],Bmax [3] [MFI],Kd [3] [nM],Bmax [4] [MFI],Kd [4] [nM]
B1,4.37,0.00487,1.12e+06,3.3,1970,4.3,975,0.4
B2,1.29,0.000649,503000,1.5,3660,1.5,1020,0.5
